Measured values taken from patent US20260226190A1 (CITY OF HOPE, published 2026).
Positions count from the first letter of the chain named. Names and notes keep the numbering of the source. Values belong to the binder of their own block, whether it stands above or below them.

Experiments:
BSA = target: T1, BSA (UniProt P02769 25-607); test: ELISA, BSA-coated control wells
T1 construct: Control coating in the ELISA; also called bovine serum albumin (control coating)
Procedure: (§1) Specificity and affinity of antigen binding was further evaluated by performing saturation binding on immobilized antigen in ELISA. Recombinant human PSCA-mouse Fc fusion protein (hPSCA-mFc, produced in house) was immobilized (1 μg/mL, 100 µL/well in PBS overnight at 4° C.). Serial dilutions of anti-PSCA scFvFc's ([…]) were incubated for 1 h at RT and after washing bound antibody fragments were detected using goat anti-human IgG-Fc-AP antibody (1:10,000) and pNPP substrate (alkaline phosphatase yellow, liquid substrate, Sigma-Aldrich P7998). The enzymatic reaction was stopped using 50 μL 2M NaOH and absorbance was red at 405 nm in an SpectraMax M2 microplane reader. Specific binding was fitted using the “one site-specific binding” equation to determine the Kd (ligand concentration that binds half the antigen sites at equilibrium) and Bₘₐₓ (maximum number of binding sites).
The purified proteins were tested for specific binding to recombinant antigen by ELISA on immobilized human PSCA-mouse Fc protein. Dose-dependent binding was detected for wells coated with hPSCA-mFc and no non-specific binding was detected in BSA coated control wells.

[1] = target: T2, Human prostate stem cell antigen (PSCA) expressed on RM9-hPSCA murine prostate cancer cells (human, UniProt O43653 12-83); test: saturation binding on PSCA-expressing cells
T2 construct: RM9 cells transduced with human PSCA; also called RM9-hPSCA cells
T2 sequence: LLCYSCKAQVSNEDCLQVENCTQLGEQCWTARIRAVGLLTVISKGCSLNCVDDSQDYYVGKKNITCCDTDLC
Description: (§2) The resulting saturation binding curves were fitted (one-site specific binding, GraphPad Prism) to determine Kd and Bₘₐₓ from four independent experiments. […] (FIG. 6)
Two novel anti-PSCA scFv-Fc variants (A2SM, A2aG) were designed, produced, and purified (FIG. 1). SDS-PAGE and SEC analysis confirmed purity and dimeric self-assembly. […] A2SM was successfully radiolabeled with ⁸⁹Zr (efficiency: >90%, purity >99%, n=2) resulting in a specific activity of ~0.17 MBq/μg (FIG. 2). […] Therefore, the novel A2SM could deliver a higher cytotoxic dose to the tumor while the liver remains the dose-limiting organ.

[2] = target: T2, Human prostate stem cell antigen (PSCA) …; test: flow cytometry saturation binding on RM9-hPSCA cells, one-site specific binding fit, four independent experiments
Description: as §2

[3] = target: T3, Recombinant human PSCA-mouse Fc fusion protein (human; mouse, UniProt O43653 12-83, limits assumed); test: ELISA saturation binding on immobilized hPSCA-mFc, one site-specific binding fit (EC50=Kd), n=3
T3 construct: Those marks are not visible here; also called hPSCA-mFc; human PSCA-murine Fc fusion protein; not shown: mouse Fc
T3 sequence: T2 sequence
Procedure: as §1

[4] = target: T3, Recombinant human PSCA-mouse Fc fusion …; test: ELISA saturation binding on hPSCA-mFc (value given for the 'previous' variant)

T1 sequence (P02769 25-607 limits assumed): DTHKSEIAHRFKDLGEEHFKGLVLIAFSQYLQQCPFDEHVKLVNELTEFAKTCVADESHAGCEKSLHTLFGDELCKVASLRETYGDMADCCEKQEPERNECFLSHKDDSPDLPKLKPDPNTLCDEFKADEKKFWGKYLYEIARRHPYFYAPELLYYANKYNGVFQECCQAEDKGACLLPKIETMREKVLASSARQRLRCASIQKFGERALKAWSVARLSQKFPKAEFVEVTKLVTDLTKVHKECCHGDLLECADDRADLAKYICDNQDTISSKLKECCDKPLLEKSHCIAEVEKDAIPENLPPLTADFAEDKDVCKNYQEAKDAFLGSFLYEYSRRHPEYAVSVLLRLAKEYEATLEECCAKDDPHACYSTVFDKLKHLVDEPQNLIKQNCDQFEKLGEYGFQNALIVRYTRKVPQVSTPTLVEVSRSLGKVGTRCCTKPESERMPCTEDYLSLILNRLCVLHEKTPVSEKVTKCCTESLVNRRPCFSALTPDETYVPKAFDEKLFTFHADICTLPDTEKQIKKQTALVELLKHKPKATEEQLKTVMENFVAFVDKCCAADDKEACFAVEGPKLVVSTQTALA

binding result (BSA): no binding | Kd [1]: 3.3 nM | Kd [2]: 3.74 nM | Kd [3]: 0.59 nM
B1: A2scFv-Fc2 SM (anti-PSCA A2 scFv-Fc2 single mutant, H310A, with K322A) (Fc fusion)
chain: EVQLVESGGGLVQPGGSLRLSCAASGFNIKDYYIHWVRQAPGKGLEWVAWIDPEYGDSEFVPKFQGRATMSADTSKNTAYLQMNSLRAEDTAVYYCKTGGFWGRGTLVTVSSGGGGSGGGGSGGSAQDIQLTQSPSSLSASVGDRVTITCSASSSVRFIHWYQQKPGKAPKRLIYDTSKLASGVPSRFSGSGSGTDFTLTISSLQPEDFATYYCQQWGSSPFTFGQGTKVEIKVECPPCPAPPVAGPSVFLFPPKPKDTLMISRTPEVTCVVVDVSHEDPEVQFNWYVDGMEVHNAKTKPREEQFNSTFRVVSVLTVVAQDWLNGKEYKCAVSNKGLPAPIEKTISKTKGQPREPQVYTLPPSREEMTKNQVSLTCLVKGFYPSDIAVEWESNGQPENNYKTTPPMLDSDGSFFLYSKLTVDKSRWQQGNVFSCSVMHEALHNHYTQKSLSLSPGK
notes: Homodimeric scFv-Fc of about 110 kDa, glycosylated, made in FreeStyle 293-F cells; I could not check whether that entry includes a leader peptide from the pSecTag2A vector; also called A2SM; A2scFv-Fc2-SM w/K322A

Kd [4]: 0.8 nM
B2: A2scFv-Fc2 DM (anti-PSCA A2 scFv-Fc2 double mutant, H310A/H435Q) (Fc fusion)
chain: B1 chain with A331K, H444Q

binding result (BSA): no binding | Kd [1]: 3.1 nM | Kd [2]: 3.28 nM | Kd [3]: 0.8 nM
B3: A2scFv-Fc2 DMaG (anti-PSCA A2 scFv-Fc2 double mutant aglycosylated, H310A/H435Q, N297Q, with K322A) (Fc fusion)
chain: B1 chain with N306Q, H444Q
notes: I could not check whether that entry includes a leader peptide; also called A2DMaG; A2scFv-Fc2-DMaG w/K322A

Kd [4]: 0.5 nM
B4: A2scFv-Fc2 (anti-PSCA A2 scFv-Fc2 without FcRn-site mutations) (Fc fusion)
chain: B1 chain with A319H, A331K
notes: also called A2Fc2
